Data set [1] in a line: Competition Caffeine-ELISA, competition by caffeine. The data set is classed as binding. The note with it: competitors caffeine, theophylline, theobromine; FIG. 4. The method, then: After caffeine specific clones had been identified, soluble VHH proteins not linked to phage particles were expressed (Harrison, supra). Binding activity of the VHH proteins was assessed in a Standard Caffeine-ELISA. Microtiter plates were coated with caffeine and blocked as above (Coating and Blocking Steps). The VHH proteins serially diluted in 20 mM Tris. pH 7.2 containing 150 mM NaCl and 0.1% Tween (TBS/BSA/Tween) were added and incubated for 90 min at 37° C. (Primary Antibody Step). Bound VHH fragments were detected by the addition of a 1/1000 dilution in TBS/BSA/Tween of mouse-anti-E Tag antibody (Amersham Bioscience Corporation) for 90 min at 37° C. (Secondary Antibody Step), followed by the addition of a 1/1000 dilution in TBS/BSA/Tween of goat-anti-mouse IgG-alkaline phosphatase conjugate for 90 min at 37° C. (Reporter Antibody Step), before the addition of para-nitrophenyl phosphate substrate (p-npp) (Sigma Aldrich) (Substrate Step). The wells were washed and monitored at A405 as above. […]
Binding of VHH proteins to unconjugated caffeine was also assessed by a competition assay (Competition Caffeine-ELISA) in which 0-800 μg/mL caffeine (Sigma-Aldrich) was added as a competitor along with the VHH during the Primary Antibody Step of the Standard Caffeine-ELISA. […] A405 readings with and without competitor were compared. […]
(In general: An ELISA detects its analyte on a solid surface through an enzyme-linked reagent.)

A short description of data set [2]: Competition Caffeine-ELISA, cross-reactivity with theophylline. The class given is binding. The method, then: (§1) Binding of VHH proteins to unconjugated caffeine was also assessed by a competition assay (Competition Caffeine-ELISA) in which 0-800 μg/mL caffeine (Sigma-Aldrich) was added as a competitor along with the VHH during the Primary Antibody Step of the Standard Caffeine-ELISA. All other steps are the same as for the Standard Caffeine ELISA. A405 readings with and without competitor were compared. The competition ELISA was used to assess cross-reactivity of theophylline and theobromine (Example 9, FIG. 4) and also the amount of caffeine in various beverages (Example 9, FIG. 7, Table 3).
(§2) Two additional methylxanthines with similar structure to caffeine, theobromine and theophylline, were tested for cross-reactivity with VSA2. The Competition Caffeine-ELISA described above was run using theobromine and theophylline (Sigma-Aldrich) as competitors at concentrations up to 250 μg/mL and compared to competition by caffeine.
(§3) The results of the competition caffeine-ELISA run with increasing concentrations of caffeine (-▪-), theophylline (. .●. .) or theobromine (- -▴- -) is shown in FIG. 4. The response (B) was compared to that of no competitor (Bo).

Data set [3] is described as follows: Competition Caffeine-ELISA, cross-reactivity with theobromine. The class given is binding. The note with it: theobromine at concentrations up to 250 μg/mL. The method, then: as §1, §2, §3
A short description of data set [4]: Thermal stability: Standard Caffeine-ELISA after heat pre-incubation. The data set is classed as binding. The method, then:
(§4) After caffeine specific clones had been identified, soluble VHH proteins not linked to phage particles were expressed (Harrison, supra). Binding activity of the VHH proteins was assessed in a Standard Caffeine-ELISA. Microtiter plates were coated with caffeine and blocked as above (Coating and Blocking Steps). The VHH proteins serially diluted in 20 mM Tris. pH 7.2 containing 150 mM NaCl and 0.1% Tween (TBS/BSA/Tween) were added and incubated for 90 min at 37° C. (Primary Antibody Step). Bound VHH fragments were detected by the addition of a 1/1000 dilution in TBS/BSA/Tween of mouse-anti-E Tag antibody (Amersham Bioscience Corporation) for 90 min at 37° C. (Secondary Antibody Step), followed by the addition of a 1/1000 dilution in TBS/BSA/Tween of goat-anti-mouse IgG-alkaline phosphatase conjugate for 90 min at 37° C. (Reporter Antibody Step), before the addition of para-nitrophenyl phosphate substrate (p-npp) (Sigma Aldrich) (Substrate Step). The wells were washed and monitored at A405 as above. The Standard ELISA assay was used to assess thermal stability and reactivity of VSA2 (Example 9, FIGS. 5 and 6).
The thermal stability of VSA2 was determined and compared to that of two mouse anti-caffeine monoclonal antibodies (Catalog No. G45110 M and G45111 M, U.S. Biological, Swampscott, Mass.). Antibody solutions were prepared in TBS containing 0.1% Tween and incubated for 20 min at temperatures ranging from RT to 90° C. The solutions were re-equilibrated to RT before measuring caffeine binding activity. For VSA2, the Standard Caffeine-ELISA protocol was followed. For the commercial mouse monoclonal antibodies, the Secondary Antibody Step was skipped.

Data set [5] can be described thus: Thermal reactivity at 70° C. with caffeine-biotinylated nonapeptide and streptavidin magnetic beads. The class given is binding. How it is done:
as §4
The thermal reactivity of VSA2 was also determined. […] The amount of unbound VSA2 remaining in the supernatant was determined in a Standard Caffeine-ELISA.

Data set [6] is described as follows: Removal of caffeine from solution by VSA2 NiNTA agarose column. The method, then:
(§5) The ability of VSA2 to remove caffeine from solution was assessed. VSA2 still containing the His Tag (prior to thrombin cleavage) was coupled to a NiNTA agarose column via its N-terminus His Tag. Approximately 1 mg of antibody was bound to 1 ml of swollen agarose. One mg of a different unrelated protein which also contained a Histag was bound to a NiNTA agarose column as a control. Five μg of caffeine in 0.5 ml of PBS was passed over the column and then washed with 4 ml of PBS and 0.5 ml fractions collected. The amount of caffeine in the wash solutions was determined by absorbance at 273 nm and converted to amount of caffeine via comparison with the absorbance of standards (0, 2.5, 5, 10 ug).
The caffeine bound to the column was eluted with 8 M urea, 100 mM sodium phosphate, 10 mM tris, pH 6.3 and 4.1 ug of caffeine came off the column which was in excellent agreement with the 4.2 ug which had originally bound to the column. No caffeine was eluted from the control column.
The ability of the VSA2 column to remove caffeine from solution was confirmed using HPLC (method previously described) to analyze the original caffeine solution put on the column and the fractions from the column washes. […] The HPLC procedure could not be used to measure the caffeine eluted from the column due to the presence of 8 M urea.

Data set [7] in a line: Removal of caffeine from decaffeinated coffee by VSA2 column. The settings on record: HPLC. The method, then:
as §5
The ability of VSA2 to remove caffeine from “decaffeinated” coffee was also assessed using brewed decaffeinated coffee (Seattle's Best™). By HPLC analysis, this batch of decaffeinated coffee had 30.8 μg/mL of caffeine. One hundred and sixty seven μL (5.15 μg caffeine) of the decaffeinated coffee was placed on the column and then the column washed as previously described and caffeine measured by HPLC in the 0.5 ml aliquots. 3.9 μg of caffeine was removed from the first decaffeinated coffee aliquot placed on the column and 0.5 μg from the second 167 μl aliquot. The total of 4.4 μg of caffeine removed by the column was very similar to the 4.2 μg removed by the column when caffeine was in a simple solution.

B1: VSA2: caffeine-specific llama single-domain heavy-chain (VHH) antibody fragment; SEQ ID NO: 1 with T7 and E tags, SEQ ID NO: 4 core (protein)
VHH: GSHMASMTGGQQMGRGSEFAEVQLQASGGGLVQAGGSLRLSCTASGRTGTIYSMAWFRQAPGKEREFLATVGWSSGITYYMDSVKGRFTISRDNAKNSAYLQMNSLKPEDTAVYYCTATRAYSVGYDYWGQGTQVTVSHAAAGAPVPYPDPLEPR
modifications: T7 and E tags; Camelidae antibody
Regarding B1, the “specificity for caffeine in competition caffeine-ELISA (B/Bo)” value in data set [1] was “highly specific for caffeine”. The “amount of theophylline relative to caffeine needed for equivalent competition” value in data set [2] was “approximately fourteen times as much theophylline as caffeine”. Besides, in data set [2], the cross-reactivity with theophylline was found to be 7.4%. Besides, the competition by theophylline entry in data set [2] (theophylline at 250 μg/mL) was “some competition”. Also, the competition by theobromine result in data set [3] is “essentially no competition”. Moreover, in data set [4] (20 min at temperatures of 60° C. and below, re-equilibrated to RT), the “effect of heat pre-incubation on caffeine binding” value is given as “no effect”. In addition, the “activity retained after heat pretreatment” value in data set [4] (20 min at temperatures up to 90° C., re-equilibrated to RT) is listed as “greater than 90%”. In data set [4] (purified soluble antibodies, 2 llama and 2 camel clones), the “heat stability compared among four representative clones” value is listed as “greatest degree of heat stability”. The “VHH remaining in solution” value is given as 56.8% in data set [5] (20 μg/mL caffeine-biotinylated-nonapeptide) and 20.1% in data set [5] (200 μg/mL caffeine-biotinylated-nonapeptide). In addition, the “caffeine bound to the column” value was 3.8 µg in data set [6] (HPLC analysis) and 3.6 µg in data set [6] (first 5 μg caffeine aliquot, UV method). Besides, the “caffeine eluted from the column” value in data set [6] (eluted with 8 M urea, 100 mM sodium phosphate, 10 mM tris, pH 6.3) is 4.1 µg. Besides, in data set [6] (five μg caffeine in PBS added, about 1 mg His-tagged VSA2 on 1 ml agarose, absorbance at 273 nm, average of duplicate), the “caffeine recovered in the washing solutions” value came out at 1.4 µg. The molecule also registered an additional bound caffeine in data set [6] (second 5 ug caffeine aliquot, UV method) of 0.6 µg. In addition, in data set [6] (two 5 ug aliquots, UV method), the “total caffeine originally bound to the column” value came to 4.2 µg. Further, the caffeine removed in data set [7] (first 167 μL decaffeinated coffee aliquot (5.15 μg caffeine)) is 3.9 µg; in data set [7] (second 167 μl decaffeinated coffee aliquot) it was 0.5 µg. Moreover, the “total caffeine removed by the column” value in data set [7] (two decaffeinated coffee aliquots) was found to be 4.4 µg.

The values are drawn from patent publication US20070178524A1, “Methods for determining and lowering caffeine concentration in fluids” (Washington University, priority 2004, published 2007).
